According to patent US20250376519A1 (JIANGSU HENGRUI PHARMACEUTICALS, published 2025):

T1: human DLL3 on cells (human, UniProt Q9NYJ7 27-618)
T1 construct: Endogenous on H1184 and SHP77; Cell line is named under assay; also called H1184; DLL3/H82
T1 sequence: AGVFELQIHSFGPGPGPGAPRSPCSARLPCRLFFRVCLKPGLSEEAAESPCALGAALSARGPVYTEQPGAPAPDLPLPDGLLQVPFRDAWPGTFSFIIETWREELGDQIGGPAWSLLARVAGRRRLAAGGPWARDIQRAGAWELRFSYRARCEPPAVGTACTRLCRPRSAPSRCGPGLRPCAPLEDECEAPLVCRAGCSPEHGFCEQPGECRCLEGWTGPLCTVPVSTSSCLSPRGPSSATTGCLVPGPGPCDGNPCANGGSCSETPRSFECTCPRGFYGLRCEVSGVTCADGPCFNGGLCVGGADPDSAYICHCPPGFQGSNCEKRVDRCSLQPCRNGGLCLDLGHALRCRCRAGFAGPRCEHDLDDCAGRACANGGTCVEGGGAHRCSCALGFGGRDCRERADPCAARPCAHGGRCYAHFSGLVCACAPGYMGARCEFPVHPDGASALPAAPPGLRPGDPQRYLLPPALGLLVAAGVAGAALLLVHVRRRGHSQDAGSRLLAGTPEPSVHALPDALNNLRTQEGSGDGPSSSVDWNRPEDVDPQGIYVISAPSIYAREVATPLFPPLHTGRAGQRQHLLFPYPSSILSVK

T2: human DLL3 (ACRO, DLL3-H52H4) (human, UniProt Q9NYJ7 27-492)
T2 construct: Bought
T2 sequence: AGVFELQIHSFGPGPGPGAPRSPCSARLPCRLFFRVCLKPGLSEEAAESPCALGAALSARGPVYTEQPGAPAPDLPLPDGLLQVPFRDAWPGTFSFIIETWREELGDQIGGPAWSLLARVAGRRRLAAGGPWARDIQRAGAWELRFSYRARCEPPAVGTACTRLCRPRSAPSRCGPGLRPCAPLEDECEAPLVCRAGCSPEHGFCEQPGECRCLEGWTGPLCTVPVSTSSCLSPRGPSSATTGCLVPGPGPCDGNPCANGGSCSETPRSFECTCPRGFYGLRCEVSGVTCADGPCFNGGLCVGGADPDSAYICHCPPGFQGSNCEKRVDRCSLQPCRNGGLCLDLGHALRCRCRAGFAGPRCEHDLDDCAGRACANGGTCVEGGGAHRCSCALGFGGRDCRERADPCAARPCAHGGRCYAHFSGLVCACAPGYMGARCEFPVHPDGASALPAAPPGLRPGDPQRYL


Assays:
human DLL3 on cells [1] = molecular target: T1, human DLL3 on cells; assay: flow cytometry, H1184 cells
Procedure: (§1) The plates were centrifuged at 300 g for 5 min, and the supernatant was removed. Different concentrations of test antibodies were added at 100 μL/well. The plates were incubated in the dark in a refrigerator at 4° C. for 1 h. After 3 centrifugal washes at 300 g, working concentrations of APC anti-human IgG Fc (BioLegend, 410712) or PE F(ab′)2-goat anti-human IgG (invitrogen, H10104) were added. The plates were incubated in the dark in a refrigerator at 4° C. for 40 min. After 3 centrifugal washes at 300 g, the geometric mean fluorescence intensity was measured on an Invitrogen flow cytometer, and the EC50 values for the binding of the antibodies to DLL3-expressing cells were calculated.

[2] = molecular target: T2, human DLL3 (ACRO, DLL3-H52H4); assay: SPR Biacore 8K, Ab captured on Protein A
Excerpt: Test antibodies were affinity-captured with a Protein A biosensor chip (Cat. #29127556, Cytiva) for 18 seconds, and then the antigens human DLL3 (ACRO, DLL3-H52H4), cynomolgus monkey DLL3 (KACTUS, DLL-RM103), mouse DLL3 (KACTUS, DLL-MM103), human CD3D&3E (ACRO, CDD-H52W1), and monkey CD3D&3E (ACRO, CDD-C52W4) were allowed to flow through the surface of the chip for 180 seconds, followed by 600 seconds of dissociation. Reaction signals were detected in real time using a Biacore 8K (Cytiva) instrument to obtain association and dissociation curves. After the dissociation in each experimental cycle, the chip was washed and regenerated with a 10 mM glycine-hydrochloric acid solution (pH 1.5, Cat. #BR-1003-54, Cytiva). Data fitting was performed using a 1:1 Model.

human DLL3 on cells [3] = molecular target: T1, human DLL3 on cells; assay: flow cytometry, DLL3/H82 cells; set-up: key to Emax: geometric mean fluorescence intensity (flow cytometry)
Procedure: as §1

Row | Binder | EC50 (human DLL3 on cells [1]) | Emax (human DLL3 on cells [1]) | Kd [2] | koff [2] | kon [2] | EC50 (human DLL3 on cells [3]) | Emax (human DLL3 on cells [3])
1 | hu6L2H2 (antibody, human IgG1, kappa, V domains shown) VH: EVQLVQSGAEVKKPGASVKVSCKASGYTFTDYYMNWVRQAPGQRLEWMGIINPYSGVTIYNHKFKGRVTLTVDKSANTAYMELSSLRSEDTAVYYCARQDSLLDYAMDYWGQGTTVTVSS VL: DIQMTQSPSSLSASVGDRVTITCHASQGISGNMGWLQQKPGKAPKGLIYHGANLEDGVPSRFSGSGSGADYTLTISSLQPEDFATYYCVQYAQFPYTFGGGTKVEIKR | 60 pM | 2190 | 1640 pM | 0.00116 s⁻¹ | 704000 M⁻¹ s⁻¹ |  | 
2 | hu30L2H3 (antibody, human IgG1, kappa, V domains shown) VH: EVRLVQSGAEVKKPGASVKVSCKASGYTFTDYYMNWVRQAPGQSLEWMGIINPYQGDTSYNQKFRGRVTLTVDKSASTAYMELSSLRSEDTAVYYCARYHYGPHLEGYFDVWGQGTTVTVSS VL: DIVMTQSPDSLAVSLGERATINCKASENVGYVSWYQQKPGQPPKLLIYGASNRYTGVPDRFSGSGSATDFTLTISSLQAEDVAVYHCGQSYSYPLTFGQGTKLEIKR |  |  | 1410 pM | 0.00138 s⁻¹ | 981000 M⁻¹ s⁻¹ | 590 pM | 4720
3 | hu30L2H4 (antibody, human IgG1, kappa, V domains shown) VH: EVRLVQSGAEVKKPGASVKVSCKASGYTFTDYYMNWVRQAPGQSLEWMGIINPYSGDTSYNQKFRGRVTLTVDKSASTAYMELSSLRSEDTAVYYCARYHYGPHLEGYFDVWGQGTTVTVSS VL: DIVMTQSPDSLAVSLGERATINCKASENVGYVSWYQQKPGQPPKLLIYGASNRYTGVPDRFSGSGSATDFTLTISSLQAEDVAVYHCGQSYSYPLTFGQGTKLEIKR |  |  | 1070 pM | 0.00104 s⁻¹ | 966000 M⁻¹ s⁻¹ | 540 pM | 5440
4 | hu30L2H5 (antibody, human IgG1, kappa, V domains shown) VH: EVRLVQSGAEVKKPGASVKVSCKASGYTFTDYYMNWVRQAPGQSLEWMGIINPYTGDTSYNQKFRGRVTLTVDKSASTAYMELSSLRSEDTAVYYCARYHYGPHLEGYFDVWGQGTTVTVSS VL: DIVMTQSPDSLAVSLGERATINCKASENVGYVSWYQQKPGQPPKLLIYGASNRYTGVPDRFSGSGSATDFTLTISSLQAEDVAVYHCGQSYSYPLTFGQGTKLEIKR |  |  | 969 pM | 0.000907 s⁻¹ | 935000 M⁻¹ s⁻¹ | 650 pM | 5570
5 | hu30L2H6 (antibody, human IgG1, kappa, V domains shown) VH: EVRLVQSGAEVKKPGASVKVSCKASGYTFTDYYMNWVRQAPGQSLEWMGIINPYNVDTSYNQKFRGRVTLTVDKSASTAYMELSSLRSEDTAVYYCARYHYGPHLEGYFDVWGQGTTVTVSS VL: DIVMTQSPDSLAVSLGERATINCKASENVGYVSWYQQKPGQPPKLLIYGASNRYTGVPDRFSGSGSATDFTLTISSLQAEDVAVYHCGQSYSYPLTFGQGTKLEIKR |  |  | 1080 pM | 0.000988 s⁻¹ | 915000 M⁻¹ s⁻¹ | 690 pM | 5420
6 | hu30L2H7 (antibody, human IgG1, kappa) heavy: not shown light: DIVMTQSPDSLAVSLGERATINCKASENVGYVSWYQQKPGQPPKLLIYGASNRYTGVPDRFSGSGSATDFTLTISSLQAEDVAVYHCGQSYSYPLTFGQGTKLEIKRTVAAPSVFIFPPSDEQLKSGTASVVCLLNNFYPREAKVQWKVDNALQSGNSQESVTEQDSKDSTYSLSSTLTLSKADYEKHKVYACEVTHQGLSSPVTKSFNRGEC |  |  | 1090 pM | 0.000983 s⁻¹ | 900000 M⁻¹ s⁻¹ | 830 pM | 5580
